Results as given in patent US20070286858A1 (Pfizer, published 2007).

Tests used:
[1] = molecular target: T1, human RAGE-Fc fusion protein (human, UniProt Q15109 23-344); assay: ligand competition ELISA, panel Blocks hRAGE-Fc interaction with S100-B; blocked ligand S100-B
T1 construct: also called hRAGE-Fc; huRAGE-Fc; not shown: Fc domain of human IgG

human RAGE, full length = molecular target: T2, human RAGE, full length (human, UniProt Q15109 23-404); assay: cell-based ELISA, 293 cells transfected with human RAGE
T2 construct: Expressed on 293 or CHO cells, or endogenous in human lung sections; also called hRAGE; cell-surface hRAGE
Experimental: Human embryonic kidney 293 cells (American Tissue Type Culture, Manassas, Va.) cells were plated at 5×10⁶ cells per 10 cm² tissue culture plate and cultured overnight at 37° C. The next day cells were transfected with RAGE expression plasmids (pAdori1-3 vector encoding mouse, human, baboon, cynomologus monkey or rabbit RAGE) using LF2000 reagent (Invitrogen, Carlsbad Calif.) at a 4:1 ratio of reagent to plasmid DNA using the manufacturers protocol. Cells were harvested 48 hrs post-transfection using trypsin, washed once with phosphate buffered saline (PBS), then suspended in growth media without serum at a concentration of 2×10⁶ cells/ml.
Primary antibodies at 1 μg/ml were serially diluted at 1:2 or 1:3 in PBS containing 1% bovine serum albumin (BSA) in a 96-well plate. RAGE-transfected 293 cells or control parental 293 cells (50 μl) at 2×10⁶ cells/ml in serum-free growth medium were added to U-bottom 96 well plate for a final concentration of 1×10⁵ cells/well. The cells were centrifuged at 1600 rpm for 2 minutes. The supernatants were gently discarded by hand with a one-time swing and the plate was patted gently to loose the cell pellet. […] The cells were centrifuged and the supernatants are transferred to a fresh plate and read at 450 nm (Soft MAX pro 4.0, Molecular Devices Corporation, Sunnyvale, Calif.).

[2] = molecular target: T3, soluble human streptavidin-tagged RAGE (human, UniProt Q15109 23-344); assay: BIACORE capture assay, antibody on CM5 chip, hRAGE-SA 0-100 nM in solution
T3 construct: also called hRAGE-SA; human RAGE-strep
Experimental: The assays were performed by coating antibodies onto a CM5 BIA chip with 5000-7000 RU.

[3] = molecular target: T1, human RAGE-Fc fusion protein; assay: ligand competition ELISA, panel Blocks hRAGE-Fc interaction with HMGB1; blocked ligand HMGB1
Experimental: Wells were washed and blocked as described above and exposed to 100 μl of pre-incubated mixtures of RAGE-Fc or TrkB-Fc (a non-specific Fc control), at 0.1 μg/ml, plus various forms of the indicated antibody preparation (dilutions of immune sera, hybridoma supernatants or purified antibodies) for 1 hour at room temperature.

[4] = molecular target: T1, human RAGE-Fc fusion protein; assay: BIACORE direct binding, hRAGE-Fc immobilized
Experimental: The binding of selected murine and rat anti-RAGE antibodies to human and murine RAGE and to the V domains of human and murine RAGE was analyzed by BIACORE® direct binding assay. […] Solution of the anti-RAGE antibodies at two concentrations, 50 and 100 nm, were run over the immobilized RAGE-Fc proteins in duplicate. BIACORE™ technology utilizes changes in the refractive index at the surface layer upon binding of the anti-RAGE antibodies to the immobilized RAGE antigen. Binding is detected by surface plasmon resonance (SPR) of laser light refracting from the surface.
The kinetic rate constants (kₐ and kd) and association and dissociation constants (Kₐ and Kd) for the binding of murine and rat anti-RAGE antibodies to human and murine RAGE were determined by BIACORE™ direct binding assay. Analysis of the signal kinetics data for on-rate and off-rate allows the discrimination between non-specific and specific interactions.

[5] = molecular target: T1, human RAGE-Fc fusion protein; assay: antibody competition ELISA on hRAGE-Fc; competitor biotinylated XT-M4
[6] = molecular target: T1, human RAGE-Fc fusion protein; assay: direct binding ELISA, coated hRAGE-Fc
Experimental: (§1) Antibodies were purified from hybridoma supernatants using standard procedures. Purified antibodies were evaluated for binding to soluble forms of RAGE with the use of ELISA. […] After washing and blocking with PBS containing 1% BSA and 0.05% Tween-20, 100 ul of sample (samples were in several forms: diluted immune serum, hybridoma supernatants, or purified antibodies, as indicated) was added and incubated for 1 hour at room temperature. The plates were washed with PBS, pH 7.2 and bound anti-RAGE antibodies were detected with the use of peroxidase-conjugated goat, anti-mouse IgG (H+L) (IgG) (Pierce, Rockford, Ill.) followed by incubation with the substrate TMB (BioFX Laboratories Owings Mills, Md. Laboratories). Absorbance values were determined at 450 nm in a spectrophotometer. The concentrations of monoclonal antibodies were determined with the use of peroxidase-labeled goat, anti-mouse IgG (Fcγ) (Pierce Rockford, Ill.) and a standard curve was generated by a purified, isotype-matched mouse IgG.

[7] = molecular target: T4, human RAGE V-region-Fc fusion protein (human, UniProt Q15109 23-118); assay: direct binding ELISA, coated hRAGE V-region-Fc
T4 construct: also called hRAGE V-domain-Fc; hRAGE-V-Fc (CM); not shown: Fc domain of human IgG
Experimental: as §1

IC50 (read off the curve) [1]: ~0.1 µg/mL
EC50 (human RAGE, full length): ~0.84 nM
Ka [2]: 2.03e+08 M⁻¹
Kd [2]: 4.92 nM
koff [2]: 0.0186 s⁻¹
kon [2]: 3.78e+06 M⁻¹ s⁻¹
IC50 (read off the curve) [3]: ~0.1 µg/mL
Ka [4]: 1e+09 M⁻¹
Kd [4]: 0.995 nM
koff [4]: 0.00116 s⁻¹
kon [4]: 1.16e+06 M⁻¹ s⁻¹
IC50 (read off the curve) [5]: ~0.4 µg/mL
EC50 [6]: 0.3 nM
EC50 [7]: 0.1 nM
B1: XT-M4 (antibody, rat IgG2b, V domains shown)
VH: EVQLVESGGGLVQPGRSLKLSCVVSGFTFNNYWMTWIRQTPGKGLEWVASINNSGDNTYYPDSVKDRFTISRDNAKSTLYLQMNSLRSEDTATYYCTRGGDITTGFDYWGQGVMVTVSS
VL: DIQMTQSPSSMSVSLGDTITITCRASQDVGIYVNWFQQKPGKSPRRMIYRATNLADGVPSRFSGSRSGSIYSLTISSLESEDVADYHCLEFDEHPLTFGSGTKVEIK
notes: also called 1mRAGEP3/10; rat XT-M4
